Source: patent publication US20250353921A1 (ASTRIA THERAPEUTICS, published 2025)
Values joined by “and” are separate entries in the source; they are usually repeats but may differ in a detail not shown here. Equal values may be shown once.

T1: human OX40 (TNFRSF4, CD134) on cells (human, UniProt P43489 29-277)
T1 construct: also called OX40 on HPB-ALL cells; Jurkat-NFκB-OX40 cells
T1 sequence: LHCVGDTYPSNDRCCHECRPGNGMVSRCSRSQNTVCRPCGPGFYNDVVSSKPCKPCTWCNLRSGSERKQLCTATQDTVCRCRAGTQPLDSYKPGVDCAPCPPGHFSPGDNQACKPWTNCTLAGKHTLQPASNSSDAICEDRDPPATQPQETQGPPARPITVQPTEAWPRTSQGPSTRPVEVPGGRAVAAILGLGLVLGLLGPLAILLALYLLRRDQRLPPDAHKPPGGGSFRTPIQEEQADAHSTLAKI

T2: human OX40-CRD-avi-his (human, UniProt P43489 29-170, limits assumed)
T2 construct: Only the CRD region of the ECD was used
T2 sequence: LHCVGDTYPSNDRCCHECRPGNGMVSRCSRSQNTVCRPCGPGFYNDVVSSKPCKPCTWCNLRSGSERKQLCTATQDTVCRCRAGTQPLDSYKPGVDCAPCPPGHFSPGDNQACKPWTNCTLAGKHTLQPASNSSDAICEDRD

T3: Human OX40 (Acro Biosystems, catalog NO: OXO-H5224) protein (human, UniProt P43489 29-216)
T3 construct: Bought protein; also called recombinant human OX40 receptor; recombinant human OX40 protein
T3 sequence: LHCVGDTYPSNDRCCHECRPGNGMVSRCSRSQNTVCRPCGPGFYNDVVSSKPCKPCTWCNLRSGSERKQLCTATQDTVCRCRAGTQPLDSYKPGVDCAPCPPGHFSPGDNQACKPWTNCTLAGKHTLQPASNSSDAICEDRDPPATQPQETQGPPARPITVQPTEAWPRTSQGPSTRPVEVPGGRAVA

T4: Human CD32a (167 His), Sino Biological 10374-H08H1 (human, UniProt P12318 34-218)
T4 construct: also called FcγRIIa167H
T4 sequence (looked up): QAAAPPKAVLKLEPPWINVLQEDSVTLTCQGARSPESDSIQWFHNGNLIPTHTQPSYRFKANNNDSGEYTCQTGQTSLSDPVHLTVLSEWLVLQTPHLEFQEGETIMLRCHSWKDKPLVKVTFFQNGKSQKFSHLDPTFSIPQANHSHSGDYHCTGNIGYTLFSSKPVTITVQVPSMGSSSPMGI


Experiments:
[1] = biological target: T1, human OX40 (TNFRSF4, CD134) on cells; experiment: flow cytometry on Jurkat-NF-κB-OX40 cells, detection with PE anti-human IgG Fc, occupancy in % of the saturating dose; in the presence of 5 µg/ml OX40L; time point not stated on the sheet
cynomolgus OX40-ECD-his [2] = biological target: T5, cynomolgus OX40-ECD-his (cynomolgus); experiment: SPR Biacore T200, IgG captured by anti-human antibody, antigen as analyte, 1:1 Langmuir
T5 construct: extracellular domain; also called Cyno OX40

human OX40-CRD-avi-his = biological target: T2, human OX40-CRD-avi-his; experiment: as above
[3] = biological target: T1, human OX40 (TNFRSF4, CD134) on cells; experiment: cell-based or functional assay
[4] = biological target: T3, Human OX40 (Acro Biosystems, catalog …); experiment: SPR Biacore 8K+
[5] = biological target: T6, Human FcRn protein (Acro Biosystems, catalog NO: FCN-H52W7) (human, UniProt P55899 24-297; P61769 21-119); experiment: SPR Biacore 8K+, antibody immobilised, FcRn analyte, pH 6.0; pH 6.0
T6 construct: also called huFcRn
T6 sequence (P55899 24-297 limits assumed, chain 1 of 2): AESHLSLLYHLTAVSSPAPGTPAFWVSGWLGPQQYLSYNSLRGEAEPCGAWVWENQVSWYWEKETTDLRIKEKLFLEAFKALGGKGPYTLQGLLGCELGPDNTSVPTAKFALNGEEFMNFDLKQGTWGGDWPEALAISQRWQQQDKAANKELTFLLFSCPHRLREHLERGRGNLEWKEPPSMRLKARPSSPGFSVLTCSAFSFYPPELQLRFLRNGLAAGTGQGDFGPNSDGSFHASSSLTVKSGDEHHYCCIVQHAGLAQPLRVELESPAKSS
T6 sequence (P61769 21-119 limits assumed, chain 2 of 2): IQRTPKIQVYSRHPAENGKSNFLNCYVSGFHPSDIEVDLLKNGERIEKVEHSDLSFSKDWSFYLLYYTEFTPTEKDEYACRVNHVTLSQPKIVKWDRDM

[6] = biological target: T1, human OX40 (TNFRSF4, CD134) on cells; experiment: flow cytometry on OX40-expressing HPB-ALL cells; cells pre-incubated with cold MAB1, washed, then stained with a single dose of the competitor GBR 830-AF647
[7] = biological target: T1, human OX40 (TNFRSF4, CD134) on cells; experiment: cell-based or functional assay; remark: listed apart in the source
[8] = biological target: T1, human OX40 (TNFRSF4, CD134) on cells; experiment: cell-based or functional assay; remark: listed apart in the source
[9] = biological target: T1, human OX40 (TNFRSF4, CD134) on cells; experiment: cell-based or functional assay; remark: listed apart in the source
[10] = biological target: T1, human OX40 (TNFRSF4, CD134) on cells; experiment: cell-based or functional assay; remark: listed apart in the source
[11] = biological target: T1, human OX40 (TNFRSF4, CD134) on cells; experiment: flow cytometry on Jurkat-NFκB (OX40) cells, detection with anti-human IgG Fc-AF647
[12] = biological target: T1, human OX40 (TNFRSF4, CD134) on cells; experiment: flow cytometry on Jurkat-NF-κB-OX40 cells, detection with PE anti-human IgG Fc, occupancy in % of the saturating dose; in the presence of 0.3 µg/ml OX40L; time point not stated on the sheet
[13] = biological target: T1, human OX40 (TNFRSF4, CD134) on cells; experiment: cell-based or functional assay; remark: listed apart in the source
cynomolgus OX40-ECD-his [14] = biological target: T5, cynomolgus OX40-ECD-his; experiment: SPR, affinity for the extracellular domain (ECD) of cynomolgus monkey OX40
[15] = biological target: T4, Human CD32a (167 His), Sino Biological …; experiment: SPR Biacore 8K+, ratio of KD values
[16] = biological target: T7, Human CD16b (NA2 allotype), Sino Biological 11046-H08H (human, UniProt O75015 17-200); experiment: SPR Biacore 8K+, ratio of KD values
T7 construct: also called FcγRIIIb
T7 sequence (O75015 17-200 N65S limits assumed): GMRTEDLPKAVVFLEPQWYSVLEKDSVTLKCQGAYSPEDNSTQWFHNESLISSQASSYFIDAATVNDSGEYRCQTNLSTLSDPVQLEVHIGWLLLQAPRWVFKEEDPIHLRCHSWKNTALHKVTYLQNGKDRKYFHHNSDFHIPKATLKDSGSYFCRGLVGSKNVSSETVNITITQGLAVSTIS

[17] = biological target: T8, Human CD16a (F176V), Sino Biological 10389-H08H1 (human, UniProt P08637 17-208); experiment: SPR Biacore 8K+, ratio of KD values
T8 construct: also called FcγRIIIa176V
T8 sequence (P08637 17-208 F176V limits assumed): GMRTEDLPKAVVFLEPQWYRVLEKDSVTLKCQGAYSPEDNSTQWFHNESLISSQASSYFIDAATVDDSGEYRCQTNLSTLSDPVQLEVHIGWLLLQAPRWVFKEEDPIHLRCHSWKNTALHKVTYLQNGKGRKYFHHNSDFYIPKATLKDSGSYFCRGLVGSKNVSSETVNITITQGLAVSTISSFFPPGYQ

[18] = biological target: T9, Human CD16a (176F), Sino Biological 10389-H08H (human, UniProt P08637 17-208); experiment: SPR Biacore 8K+, ratio of KD values
T9 construct: also called FcγRIIIa176F
T9 sequence (P08637 17-208 limits assumed): as the sequence (P08637 17-208 F176V limits assumed) above, with V160F counted along it

| Binder | EC50 (read off the curve) [1] | Kd (cynomolgus OX40-ECD-his [2]) | Kd (human OX40-CRD-avi-his) | koff (human OX40-CRD-avi-his) | kon (human OX40-CRD-avi-his) | fold increase in binding affinity against GBR830 [4] | Kd [5] | ADCC EC50, activated T cells (LDH release) [7] | Fold diff to MAB10, ADCC EC50, activated T cells [7] | ADCC EC50, activated T cells [8] | ADCC EC50, in vitro differentiated Tregs [9] | EC50, inhibition of T cell proliferation [10] | EC50 (read off the curve) [11] | EC50 (read off the curve) [12] | average proliferation index (Av), coated T cell agonism assay [13] | other results |
| --- | --- | --- | --- | --- | --- | --- | --- | --- | --- | --- | --- | --- | --- | --- | --- | --- |
| MAB1 IgG1 (antibody, Human IgG1, kappa) heavy: not shown light: EIVLTQSPATLSLSPGERATLSCRASSSVSYMHWYQQKPGQAPRPWIYATSNRATGIPARFSGSGSGTDYTLTISSLEPEDFAVYYCQQFGAWPWTFGQGTKVEIKRTVAAPSVFIFPPSDEQLKSGTASVVCLLNNFYPREAKVQWKVDNALQSGNSQESVTEQDSKDSTYSLSSTLTLSKADYEKHKVYACEVTHQGLSSPVTKSFNRGEC | ~0.4 nM | 557 nM | 6 nM | 0.00163 s⁻¹ | 274000 M⁻¹ s⁻¹ | 8 fold | 102 nM | 0.27 nM | 0.37 fold | 0.026 nM and 0.004 ug/ml | 0.089 nM and 0.015 µg/mL | 0.17 nM and 0.24 ug/ml | ~0.09 mg/L | ~0.2 nM | 0.97 | koff (cynomolgus OX40-ECD-his [2]): 0.0405 s⁻¹; kon (cynomolgus OX40-ECD-his [2]): 72700 M⁻¹ s⁻¹; fold decrease in ADCC of activated T cells against KHK4083 [3]: 3 fold; IC50 (read off the curve) [6]: ~0.02 mg/L; Fold Change to GBR 830, ADCC EC50, activated T cells [8]: 3.25 fold; Fold Change to GBR 830, ADCC EC50, Tregs [9]: 74 fold; Fold change to GBR 830, proliferation EC50 [10]: 33 fold |
| GBR 830 (telazorlimab) (antibody, human IgG1, kappa, IgG1; also called Antibody 830; ISB830) heavy: not shown light: EIVLTQSPATLSLSPGERATLSCRASSSVSYMHWYQQKPGQAPRPWIYATSNRATGIPARFSGSGSGTDYTLTISSLEPEDFAVYYCQQWSSNPWTFGQGTKVEIKRTVAAPSVFIFPPSDEQLKSGTASVVCLLNNFYPREAKVQWKVDNALQSGNSQESVTEQDSKDSTYSLSSTLTLSKADYEKHKVYACEVTHQGLSSPVTKSFNRGEC |  | 3040 nM | 80.4 nM | 0.00654 s⁻¹ | 81300 M⁻¹ s⁻¹ |  | 112 nM | 0.13 nM | 0.77 fold | 0.078 nM and 0.13 ug/ml | 0.833 nM and 0.121 µg/mL | 5.67 nM and 0.833 ug/ml | ~0.3 mg/L | ~0.7 nM | 0.98 | Kd (cynomolgus OX40-ECD-his [14]): 5000 nM and 3000 nM |
| MAB10 (antibody, human IgG1, kappa, MAB1 with M252Y, S254T and T256E (EU numbering) in the IgG1 Fc; also called MAB1 Heavy Chain + YTE) heavy: QVTLKESGPALVKPTQTLTLTCSFSGFSLSTSGMGVGWIRQPPGKALEWIAHIWWDDDKYYNTALKTRLTISKDTSKNQVVLTMTNMDPVDTATYYCARIDWDGFAYWGQGTLVTVSSASTKGPSVFPLAPSSKSTSGGTAALGCLVKDYFPEPVTVSWNSGALTSGVHTFPAVLQSSGLYSLSSVVTVPSSSLGTQTYICNVNHKPSNTKVDKKVEPKSCDKTHTCPPCPAPELLGGPSVFLFPPKPKDTLYITREPEVTCVVVDVSHEDPEVKFNWYVDGVEVHNAKTKPREEQYNSTYRVVSVLTVLHQDWLNGKEYKCKVSNKALPAPIEKTISKAKGQPREPQVYTLPPSRDELTKNQVSLTCLVKGFYPSDIAVEWESNGQPENNYKTTPPVLDSDGSFFLYSKLTVDKSRWQQGNVFSCSVMHEALHNHYTQKSLSLSPGK light: EIVLTQSPATLSLSPGERATLSCRASSSVSYMHWYQQKPGQAPRPWIYATSNRATGIPARFSGSGSGTDYTLTISSLEPEDFAVYYCQQFGAWPWTFGQGTKVEIKRTVAAPSVFIFPPSDEQLKSGTASVVCLLNNFYPREAKVQWKVDNALQSGNSQESVTEQDSKDSTYSLSSTLTLSKADYEKHKVYACEVTHQGLSSPVTKSFNRGEC | ~0.7 nM |  |  |  |  | 8 fold | 11.5 nM | 0.1 nM |  |  |  |  |  | ~0.4 nM |  | EC50 (inhibition) of NFκB signaling, Jurkat-NFκB-OX40 cells, 0.07 µg/mL OX40L [3]: 0.79 nM; EC50 (inhibition) of NFκB signaling, Jurkat-NFκB-OX40 cells, 5 µg/mL OX40L [3]: 4.59 nM; fold-change of KD relative to MAB1 [15]: 3.1 fold; fold-change of KD relative to MAB1 [16]: 4.3 fold; fold-change of KD relative to MAB1 [17]: 2.7 fold; fold-change of KD relative to MAB1 [18]: 3 fold |
